# Patent publication US20260176319A1 (KALLYOPE, published 2026)
# Starred links: 1 amine or outer side, 2 acyl side, 3 side chain; linkers in the order of their positions; H or OH if unused. Non-standard residues stand in square brackets, D forms with d. *: point of attachment. Trp(7-F) = N[C@@H](Cc1c[nH]c2c(F)cccc12)C(=O)O; Trp(7-Me) = Cc1cccc2c(C[C@H](N)C(=O)O)c[nH]c12; C18 diacid = O=C(O)CCCCCCCCCCCCCCCCC(=O)*; γGlu = O=C(O)[C@H](CCC(=O)[*:2])N[*:1]; 2Nal = N[C@@H](Cc1ccc2ccccc2c1)C(=O)O; Nle = CCCC[C@H](N)C(=O)O; AEEA = NCCOCCOCC(=O)O; Sar = CNCC(=O)O
# Molecular target: human GRP receptor (human, UniProt P30550 1-384)
# Sequence (P30550 whole entry): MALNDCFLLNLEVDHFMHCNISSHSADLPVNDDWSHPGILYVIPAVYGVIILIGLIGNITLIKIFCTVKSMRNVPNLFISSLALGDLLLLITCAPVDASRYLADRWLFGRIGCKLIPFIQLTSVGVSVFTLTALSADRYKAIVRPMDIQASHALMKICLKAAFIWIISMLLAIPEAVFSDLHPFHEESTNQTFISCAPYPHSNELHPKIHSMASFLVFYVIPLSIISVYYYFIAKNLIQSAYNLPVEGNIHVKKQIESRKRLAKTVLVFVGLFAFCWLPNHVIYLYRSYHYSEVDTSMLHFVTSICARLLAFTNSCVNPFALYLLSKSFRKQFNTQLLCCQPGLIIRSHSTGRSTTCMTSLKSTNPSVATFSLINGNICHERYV
# Test: cell-based or functional assay
row,Binder,hIP1 GRPR EC50 [nM]
1,{C18 diacid}-[γGlu][AEEA][AEEA]GNH[Trp(7-F)]AV[dA]HL[Nle][Sar]-NH2 (SMILES CCCC[C@H](NC(=O)[C@H](CC(C)C)NC(=O)[C@H](Cc1c[nH]cn1)NC(=O)[C@@H](C)NC(=O)[C@@H](NC(=O)[C@H](C)NC(=O)[C@H](Cc1c[nH]c2c(F)cccc12)NC(=O)[C@H](Cc1c[nH]cn1)NC(=O)[C@H](CC(N)=O)NC(=O)CNC(=O)COCCOCCNC(=O)COCCOCCNC(=O)CC[C@H](NC(=O)CCCCCCCCCCCCCCCCC(=O)O)C(=O)O)C(C)C)C(=O)N(C)CC(N)=O) [Peptide 102],181
2,{C18 diacid}-[γGlu][AEEA][AEEA][AEEA][AEEA]GNH[Trp(7-Me)]AV[dA]HL[Nle][Sar]-NH2 (SMILES CCCC[C@H](NC(=O)[C@H](CC(C)C)NC(=O)[C@H](Cc1c[nH]cn1)NC(=O)[C@@H](C)NC(=O)[C@@H](NC(=O)[C@H](C)NC(=O)[C@H](Cc1c[nH]c2c(C)cccc12)NC(=O)[C@H](Cc1c[nH]cn1)NC(=O)[C@H](CC(N)=O)NC(=O)CNC(=O)COCCOCCNC(=O)COCCOCCNC(=O)COCCOCCNC(=O)COCCOCCNC(=O)CC[C@H](NC(=O)CCCCCCCCCCCCCCCCC(=O)O)C(=O)O)C(C)C)C(=O)N(C)CC(N)=O) [Peptide 103],345
3,{C18 diacid}-[γGlu][AEEA][AEEA]GNH[Trp(7-Me)]AV[dA]HL[Nle][Sar]-NH2 (SMILES CCCC[C@H](NC(=O)[C@H](CC(C)C)NC(=O)[C@H](Cc1c[nH]cn1)NC(=O)[C@@H](C)NC(=O)[C@@H](NC(=O)[C@H](C)NC(=O)[C@H](Cc1c[nH]c2c(C)cccc12)NC(=O)[C@H](Cc1c[nH]cn1)NC(=O)[C@H](CC(N)=O)NC(=O)CNC(=O)COCCOCCNC(=O)COCCOCCNC(=O)CC[C@H](NC(=O)CCCCCCCCCCCCCCCCC(=O)O)C(=O)O)C(C)C)C(=O)N(C)CC(N)=O) [Peptide 104],221
4,{C18 diacid}-[γGlu][AEEA][AEEA]GNH[2Nal]AV[dA]HL[Nle]-NH2 (SMILES CCCC[C@H](NC(=O)[C@H](CC(C)C)NC(=O)[C@H](Cc1c[nH]cn1)NC(=O)[C@@H](C)NC(=O)[C@@H](NC(=O)[C@H](C)NC(=O)[C@H](Cc1ccc2ccccc2c1)NC(=O)[C@H](Cc1c[nH]cn1)NC(=O)[C@H](CC(N)=O)NC(=O)CNC(=O)COCCOCCNC(=O)COCCOCCNC(=O)CC[C@H](NC(=O)CCCCCCCCCCCCCCCCC(=O)O)C(=O)O)C(C)C)C(N)=O) [Peptide 105],232
5,{C18 diacid}-[γGlu][AEEA][AEEA]GNHW[dA]V[dA]HL[Nle]-NH2 (SMILES CCCC[C@H](NC(=O)[C@H](CC(C)C)NC(=O)[C@H](Cc1c[nH]cn1)NC(=O)[C@@H](C)NC(=O)[C@@H](NC(=O)[C@@H](C)NC(=O)[C@H](Cc1c[nH]c2ccccc12)NC(=O)[C@H](Cc1c[nH]cn1)NC(=O)[C@H](CC(N)=O)NC(=O)CNC(=O)COCCOCCNC(=O)COCCOCCNC(=O)CC[C@H](NC(=O)CCCCCCCCCCCCCCCCC(=O)O)C(=O)O)C(C)C)C(N)=O) [Peptide 106],467
6,{C18 diacid}-[γGlu][AEEA][AEEA]GNHHAV[dA]HL[Nle]-NH2 (SMILES CCCC[C@H](NC(=O)[C@H](CC(C)C)NC(=O)[C@H](Cc1c[nH]cn1)NC(=O)[C@@H](C)NC(=O)[C@@H](NC(=O)[C@H](C)NC(=O)[C@H](Cc1c[nH]cn1)NC(=O)[C@H](Cc1c[nH]cn1)NC(=O)[C@H](CC(N)=O)NC(=O)CNC(=O)COCCOCCNC(=O)COCCOCCNC(=O)CC[C@H](NC(=O)CCCCCCCCCCCCCCCCC(=O)O)C(=O)O)C(C)C)C(N)=O) [Peptide 107],> 10000
7,EXXGNHWAVGHLM (Palmitoyl-D-γGlu-OEG-OEG-Gly-Asn-His-Trp-Ala-Val-Gly-His-Leu-Met-NH2) [Peptide 8],1.7
